Assay [1] has as its target Porcine circovirus (PCV) grown in PS cell culture (porcine circovirus). Description: ELISA, PCV supernatant adsorbed to the plate at virus dilution 1:200. In general terms: ELISA stands for enzyme-linked immunosorbent assay.
The target is the same in assay [2]. The assay is described as follows: ELISA, PCV supernatant adsorbed to the plate at virus dilution 1:400.
Assay [3] has the same target. Description: ELISA, PCV supernatant adsorbed to the plate at virus dilution 1:800.
Assay [4] has the same target. The assay is described as follows: ELISA, PCV supernatant adsorbed to the plate at virus dilution 1:1600.
Assay [5] shares this target. Description: ELISA, PCV supernatant adsorbed to the plate at virus dilution 1:3200.
The target is the same in assay [6]. Description: ELISA, PCV supernatant adsorbed to the plate at virus dilution 1:6400.

One substance from patent publication US6573081 can be followed below.

As for “Human immunoglobulin concentrate (Beriglobin P)”, the extinction in assay [1] is more than 2 extinction; in assay [2] it was 1.98 extinction; in assay [3], 1.17 extinction; in assay [4], 0.726 extinction; in assay [5] it was 0.268 extinction; in assay [6], 0.381 extinction.
